Measurements as given in PMC7089075.

What was measured:
[1] = biological target: N (two-hybrid positive control, pAS2 N and pGADT7 N); test: two-hybrid
[2] = biological target: Salmo salar Mov10 (SsMov10) (Salmo salar); test: two-hybrid

Q: How did the liquid beta gal assay value [1] turn out when “N (two-hybrid positive control, pAS2 N and pGADT7 N) (natural protein)” was run?
A: 1.28

Q: How did the fold β-galactosidase activity against the controls [2] turn out when “infectious salmon anaemia virus (ISAV) segment 8 open reading frame 2 protein (s8ORF2) (natural protein)” was run?
A: 5 fold
